Source: paper PMC9172071, “Peach fruit PpNAC1 activates PpFAD3-1 transcription to provide ω-3 fatty acids for the synthesis of short-chain flavor volatiles”

Target: GST-PpNAC1 (Prunus persica (peach), UniProt M5WG30 1-363)
Experiment: EMSA; LightShift Chemiluminescent EMSA kit (Thermo Fisher); buffer, salt, pH and temperature not stated (refers to previous study)
Conditions: protein: recombinant; tags: GST (N-terminal, pGEX-4T-1); chain copies: 2; blunt

Sequence of GST-PpNAC1 (M5WG30 entry or part of it): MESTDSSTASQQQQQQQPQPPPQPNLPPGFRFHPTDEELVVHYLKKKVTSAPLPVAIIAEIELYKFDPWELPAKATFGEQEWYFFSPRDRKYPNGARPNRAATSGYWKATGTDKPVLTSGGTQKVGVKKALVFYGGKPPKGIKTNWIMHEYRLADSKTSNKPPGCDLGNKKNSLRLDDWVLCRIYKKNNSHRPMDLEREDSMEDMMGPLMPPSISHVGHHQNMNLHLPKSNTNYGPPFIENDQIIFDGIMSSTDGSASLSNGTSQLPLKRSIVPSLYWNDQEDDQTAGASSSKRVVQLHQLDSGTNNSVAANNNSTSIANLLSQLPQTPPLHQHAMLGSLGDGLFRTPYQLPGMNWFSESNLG

B1: Mutant-Probe1 (dsDNA)
DNA 1: AACCCCGCAGCAGCGTGCACTTTACCTGGTG
DNA 2: CACCAGGTAAAGTGCACGCTGCTGCGGGGTT
B1: no binding.
